Data: paper PMC9424733, “Lysine acetylation of Escherichia coli lactate dehydrogenase regulates enzyme activity and lactate synthesis” (Frontiers in Bioengineering and Biotechnology, 2022)
Positions count from the first letter of the chain named. Names and notes keep the numbering of the source.

B1: Escherichia coli lactate dehydrogenase (LdhA), wild type (enzyme, UniProt P52643 1-329, looked up)
chain: MKLAVYSTKQYDKKYLQQVNESFGFELEFFDFLLTEKTAKTANGCEAVCIFVNDDGSRPVLEELKKHGVKYIALRCAGFNNVDLDAAKELGLKVVRVPAYDPEAVAEHAIGMMMTLNRRIHRAYQRTRDANFSLEGLTGFTMYGKTAGVIGTGKIGVAMLRILKGFGMRLLAFDPYPSAAALELGVEYVDLPTLFSESDVISLHCPLTPENYHLLNEAAFEQMKNGVMIVNTSRGALIDSQAAIEALKNQKIGSLGMDVYENERDLFFEDKSNDVIQDDVFRRLSACHNVLFTGHQAFLTAEALTSISQTTLQNLSNLEKGETCPNELV
notes: D-lactate dehydrogenase LdhA of Escherichia coli; Partly acetylated on K9, K70, K154 and K248 when grown with 2% glucose (mass spectrometry); also called EcLdhA; NAD-dependent lactate dehydrogenase
B2: Escherichia coli LdhA (K248Q) (enzyme, UniProt P52643 1-329, looked up)
chain: B1 chain with K248Q
notes: D-lactate dehydrogenase LdhA of Escherichia coli with K248Q (mimics acetyl-lysine); Same construct as m1 with the point mutation; also called LdhA K248Q mutant
B3: Escherichia coli LdhA (K248R) (enzyme, UniProt P52643 1-329, looked up)
chain: B1 chain with K248R
notes: D-lactate dehydrogenase LdhA of Escherichia coli with K248R; Same construct as m1 with the point mutation; also called LdhA K248R mutant
B4: Escherichia coli LdhA (D279N) (enzyme, UniProt P52643 1-329, looked up)
chain: B1 chain with D279N
notes: D-lactate dehydrogenase LdhA of Escherichia coli with D279N; Same construct as m1 with the point mutation; also called LdhA D279N mutant

Target: the molecule itself
Test: SEC; gel filtration analysis of purified LdhA and mutants; retention volumes of the highest peaks compared; column and buffer not told

Stoichiometry N, 4:
B1, B2, B3, B4
